Data published in patent US20220305006A1 (University of California, published 2022).

Legend:
Test in all cases: cell-based or functional assay
[1] = molecular target: Recombinant Human Cathepsin D (human, UniProt P07339 65-412)
[2] = molecular target: BACE in CHO-7W cells (Chinese hamster ovary cells stably transfected with wildtype human APP)
[3] = molecular target: BACE1 expressed from a transfected plasmid in 293T cells (NRG1 and PSGL1 assays)

Recombinant Human Cathepsin D, sequence (P07339 65-412): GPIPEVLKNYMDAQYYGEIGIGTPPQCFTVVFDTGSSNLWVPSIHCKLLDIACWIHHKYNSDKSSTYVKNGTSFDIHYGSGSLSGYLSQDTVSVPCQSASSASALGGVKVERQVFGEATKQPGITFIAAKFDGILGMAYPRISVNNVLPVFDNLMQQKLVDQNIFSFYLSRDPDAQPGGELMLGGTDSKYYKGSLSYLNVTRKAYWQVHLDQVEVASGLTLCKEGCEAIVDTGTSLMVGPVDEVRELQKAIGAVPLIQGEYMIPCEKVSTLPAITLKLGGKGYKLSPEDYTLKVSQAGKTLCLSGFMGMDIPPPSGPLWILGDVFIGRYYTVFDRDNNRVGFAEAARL

## Ac-ALYPYFLPISAK-NH2 [Peptide 65007]
[1]
  Cat D activity (fluorogenic substrate), IC50: > 5 µM
[2]
  decrease of BACE cleavage product sAPPβ from CHO-7W cells, EC50: ~10 µM
[3]
  NRG1 cleavage by BACE in co-transfected 293T cells (secreted alkaline phosphatase), EC50: > 10 µM
  PSGL1 cleavage by BACE in co-transfected 293T cells (secreted alkaline phosphatase), EC50: > 10 µM
